Measured values as given in patent US20070286858A1 (Pfizer, published 2007).

Key:
[1] = biological target: T1, human RAGE-Fc fusion protein (human, UniProt Q15109 23-344); assay: direct binding ELISA, coated hRAGE-Fc
T1 construct: also called hRAGE-Fc; huRAGE-Fc; not shown: Fc domain of human IgG
Experimental: (§1) Antibodies were purified from hybridoma supernatants using standard procedures. Purified antibodies were evaluated for binding to soluble forms of RAGE with the use of ELISA. […] After washing and blocking with PBS containing 1% BSA and 0.05% Tween-20, 100 ul of sample (samples were in several forms: diluted immune serum, hybridoma supernatants, or purified antibodies, as indicated) was added and incubated for 1 hour at room temperature. The plates were washed with PBS, pH 7.2 and bound anti-RAGE antibodies were detected with the use of peroxidase-conjugated goat, anti-mouse IgG (H+L) (IgG) (Pierce, Rockford, Ill.) followed by incubation with the substrate TMB (BioFX Laboratories Owings Mills, Md. Laboratories). Absorbance values were determined at 450 nm in a spectrophotometer. The concentrations of monoclonal antibodies were determined with the use of peroxidase-labeled goat, anti-mouse IgG (Fcγ) (Pierce Rockford, Ill.) and a standard curve was generated by a purified, isotype-matched mouse IgG.

[2] = biological target: T2, human RAGE V-region-Fc fusion protein (human, UniProt Q15109 23-118); assay: direct binding ELISA, coated hRAGE V-region-Fc
T2 construct: also called hRAGE V-domain-Fc; hRAGE-V-Fc (CM); not shown: Fc domain of human IgG
Experimental: as §1

[3] = biological target: T1, human RAGE-Fc fusion protein; assay: BIACORE direct binding, hRAGE-Fc immobilized
Experimental: The binding of selected murine and rat anti-RAGE antibodies to human and murine RAGE and to the V domains of human and murine RAGE was analyzed by BIACORE® direct binding assay. […] Solution of the anti-RAGE antibodies at two concentrations, 50 and 100 nm, were run over the immobilized RAGE-Fc proteins in duplicate. BIACORE™ technology utilizes changes in the refractive index at the surface layer upon binding of the anti-RAGE antibodies to the immobilized RAGE antigen. Binding is detected by surface plasmon resonance (SPR) of laser light refracting from the surface.
The kinetic rate constants (kₐ and kd) and association and dissociation constants (Kₐ and Kd) for the binding of murine and rat anti-RAGE antibodies to human and murine RAGE were determined by BIACORE™ direct binding assay. Analysis of the signal kinetics data for on-rate and off-rate allows the discrimination between non-specific and specific interactions.

[4] = biological target: T3, soluble human streptavidin-tagged RAGE (human, UniProt Q15109 23-344); assay: BIACORE capture assay, antibody on CM5 chip, hRAGE-SA 0-100 nM in solution
T3 construct: also called hRAGE-SA; human RAGE-strep
Experimental: The assays were performed by coating antibodies onto a CM5 BIA chip with 5000-7000 RU.

[5] = biological target: T1, human RAGE-Fc fusion protein; assay: ligand competition ELISA: HMGB1 coated, hRAGE-Fc pre-mixed with mAb, anti-huIgG-HRP; blocked ligand HMGB1
Experimental: Wells were washed and blocked as described above and exposed to 100 μl of pre-incubated mixtures of RAGE-Fc or TrkB-Fc (a non-specific Fc control), at 0.1 μg/ml, plus various forms of the indicated antibody preparation (dilutions of immune sera, hybridoma supernatants or purified antibodies) for 1 hour at room temperature.

[6] = biological target: T1, human RAGE-Fc fusion protein; assay: antibody competition ELISA on hRAGE-Fc; competitor biotinylated XT-M4; sheet note: N52D (labeled N71D) is glycosylation mutant in CDR2 of HC
Experimental: (§2) ELISA plates were coated overnight with 1 ug/ml human RAGE-Fc. […] Briefly, plates were coated overnight with 1 ug/ml human RAGE-Fc.

[7] = biological target: T3, soluble human streptavidin-tagged RAGE; assay: BIACORE capture, hRAGE-SA over captured antibody, steady state affinity, FC3
Experimental: (§3) The assays were performed by coating anti-human Fc antibodies onto a CM5 BIA chip with 5000 RU (pH 5.0, 7 min.) in flow cells 1-4. Each antibody was captured by flowing at 2.0 μg/ml over the anti-Fc antibodies in flow cells 2-4 (flow cell 1 was used as a reference).

[8] = biological target: T3, soluble human streptavidin-tagged RAGE; assay: BIACORE capture, hRAGE-SA over captured antibody, steady state affinity, FC4
Experimental: as §3

[9] = biological target: T3, soluble human streptavidin-tagged RAGE; assay: BIACORE capture, hRAGE-SA over captured antibody, 1:1 Langmuir global fit, FC2
Experimental: as §3

[10] = biological target: T3, soluble human streptavidin-tagged RAGE; assay: BIACORE capture, hRAGE-SA over captured antibody, 1:1 Langmuir global fit, FC3
Experimental: as §3

[11] = biological target: T3, soluble human streptavidin-tagged RAGE; assay: BIACORE capture, hRAGE-SA over captured antibody, 1:1 Langmuir global fit, FC4
Experimental: as §3

[12] = biological target: T4, murine RAGE-strep tag fusion protein (mouse, UniProt Q62151 23-343); assay: BIACORE capture, SA-Mu RAGE over captured antibody, 1:1 Langmuir global fit, FC2
T4 construct: also called mRAGE-strep; mRAGE-SA
T4 chain: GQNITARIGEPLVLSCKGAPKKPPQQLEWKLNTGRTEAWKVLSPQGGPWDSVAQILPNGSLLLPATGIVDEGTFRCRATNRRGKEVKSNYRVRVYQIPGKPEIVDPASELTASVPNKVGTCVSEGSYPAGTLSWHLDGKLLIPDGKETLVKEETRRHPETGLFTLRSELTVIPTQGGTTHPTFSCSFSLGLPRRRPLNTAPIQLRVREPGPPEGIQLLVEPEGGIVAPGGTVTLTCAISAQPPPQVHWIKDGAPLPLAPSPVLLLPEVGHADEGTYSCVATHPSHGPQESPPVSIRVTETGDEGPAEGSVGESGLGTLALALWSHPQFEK
Experimental: as §3

[13] = biological target: T4, murine RAGE-strep tag fusion protein; assay: BIACORE capture, SA-Mu RAGE over captured antibody, 1:1 Langmuir global fit, FC3
Experimental: as §3

[14] = biological target: T4, murine RAGE-strep tag fusion protein; assay: BIACORE capture, SA-Mu RAGE over captured antibody, 1:1 Langmuir global fit, FC4
Experimental: as §3

[15] = biological target: T3, soluble human streptavidin-tagged RAGE; assay: BIACORE capture, hRAGE-SA over captured antibody, steady state affinity, row Average
Experimental: as §3

[16] = biological target: T3, soluble human streptavidin-tagged RAGE; assay: BIACORE capture, hRAGE-SA over captured antibody, 1:1 Langmuir global fit, row Average
Experimental: as §3

[17] = biological target: T4, murine RAGE-strep tag fusion protein; assay: BIACORE capture, SA-Mu RAGE over captured antibody, 1:1 Langmuir global fit, row Average
Experimental: as §3

[18] = biological target: T3, soluble human streptavidin-tagged RAGE; assay: BIACORE capture, hRAGE-SA over captured antibody, steady state affinity, FC2 (cell circled on the sheet)
Experimental: as §3

[19] = biological target: T1, human RAGE-Fc fusion protein; assay: competition ELISA on coated hRAGE-Fc; competitor 12.5 ng/ml biotinylated rat XT-M4
Experimental: as §2

[20] = biological target: T1, human RAGE-Fc fusion protein; assay: competition ELISA on coated hRAGE-Fc; competitor 12.5 ng/ml biotinylated rat XT-M4; lower end of the printed range 0.3-0.4; second listing of this pair (r31, beside r26: 0.95)
Experimental: as §2

[21] = biological target: T1, human RAGE-Fc fusion protein; assay: competition ELISA on coated hRAGE-Fc; competitor 12.5 ng/ml biotinylated rat XT-M4; upper end of the printed range 0.3-0.4; second listing of this pair (r31, beside r26: 0.95)
Experimental: as §2

B1: XT-H2 (antibody, mouse IgG1, V domains shown)
VH: QVQLQQSGAELAKPGASVKMSCKASGYTFTTYWMHWVKQRPGQGLYWIGYINPSTGYTEYNQKFKDKATLTADKSSSTAYMQLSSLTSEDSAVYYCARWAGYTIDYWGQGTSVTVSS
VL: DVVLTQTPLSLPVNIGDQASISCKSTKSLLNSDGFTYLDWYLQKPGQSPQLLIYLVSDRFSGVPDRFSGSGSGTDFTLTISRVEAEDLGVYYCFQSNSLPLTFGSGTKLEIK
notes: also called 1hRAGEP3/16; murine anti-huRAGE monoclonal antibody XT-H2
- EC50 [1]: 0.09 nM
- EC50 [2]: 0.1 nM
- Ka [3]: 1.14e+10 M⁻¹
- Kd [3]: 0.0876 nM
- koff [3]: 0.000504 s⁻¹
- kon [3]: 5.76e+06 M⁻¹ s⁻¹
- Ka [4]: 9.48e+08 M⁻¹
- Kd [4]: 1.06 nM
- koff [4]: 0.00116 s⁻¹
- kon [4]: 1.1e+06 M⁻¹ s⁻¹
- IC50 (read off the curve) [5]: ~0.2 µg/mL

B2: XT-M4 with N52D in the heavy chain variable region (antibody, name in Kabat numbering, V domains shown)
VH: EVQLVESGGGLVQPGRSLKLSCVVSGFTFNNYWMTWIRQTPGKGLEWVASIDNSGDNTYYPDSVKDRFTISRDNAKSTLYLQMNSLRSEDTATYYCTRGGDITTGFDYWGQGVMVTVSS
VL: DIQMTQSPSSMSVSLGDTITITCRASQDVGIYVNWFQQKPGKSPRRMIYRATNLADGVPSRFSGSRSGSIYSLTISSLESEDVADYHCLEFDEHPLTFGSGTKVEIK
notes: Removes the glycosylation site in CDR2; also called XT-M4 N52D
- IC50 (read off the curve) [6]: ~0.1 µg/mL

B3: XT-M4-V10 (antibody, V domains shown)
VH: EVQLVESGGGLVQPGGSLRLSCAASGFTFNNYWMTWVRQAPGKGLEWVASIDNSGDNTYYPDSVKDRFTISRDNAKNSLYLQMNSLRAEDTAVYYCARGGDITTGFDYWGQGTLVTVSS
VL: DIQMTQSPSSLSASVGDRVTITCRASQDVGIYVNWFQQKPGKAPKRLIYRATNLADGVPSRFSGSGSGTDFTLTISSLQPEDFATYYCLEFDEHPLTFGGGTKVEIK
- Kd [7]: 24 nM
- Kd [8]: 26 nM
- Kd [9]: 31.8 nM
- koff [9]: 0.00972 s⁻¹
- kon [9]: 306000 M⁻¹ s⁻¹
- Kd [10]: 18.2 nM
- koff [10]: 0.0569 s⁻¹
- kon [10]: 3.13e+06 M⁻¹ s⁻¹
- Kd [11]: 20.3 nM
- koff [11]: 0.0704 s⁻¹
- kon [11]: 3.47e+06 M⁻¹ s⁻¹
- Kd [12]: 3 nM
- koff [12]: 0.0078 s⁻¹
- kon [12]: 2.6e+06 M⁻¹ s⁻¹
- Kd [13]: 2.9 nM
- koff [13]: 0.0076 s⁻¹
- kon [13]: 2.6e+06 M⁻¹ s⁻¹
- Kd [14]: 3 nM
- koff [14]: 0.0078 s⁻¹
- kon [14]: 2.6e+06 M⁻¹ s⁻¹
- Kd [15]: 25 nM
- Kd [16]: 23.4 nM
- koff [16]: 0.0457 s⁻¹
- kon [16]: 2.3e+06 M⁻¹ s⁻¹
- Kd [17]: 3 nM
- koff [17]: 0.0077 s⁻¹
- kon [17]: 2.6e+06 M⁻¹ s⁻¹
- Kd [18]: 25 nM

B4: humanized XT-M4 hVH-V2.0 / hVL-V2.10 (antibody, human IgG1, V domains shown)
VH: B3 VH
VL: B3 VL
- IC50 [19]: 0.95 µg/mL
- IC50 [20]: 0.3 to 0.4 µg/mL
- IC50 [21]: 0.3 to 0.4 µg/mL
